Measured values reported in patent CN117460529A (dated 2024).

T1: 人ICOS (HTRF测定) (human, UniProt Q9Y6W8 21-140, limits assumed)
T1 construct: the HTRF construct is described only in US 9,957,323; also called human ICOS; ICOS受体
T1 sequence (looked up): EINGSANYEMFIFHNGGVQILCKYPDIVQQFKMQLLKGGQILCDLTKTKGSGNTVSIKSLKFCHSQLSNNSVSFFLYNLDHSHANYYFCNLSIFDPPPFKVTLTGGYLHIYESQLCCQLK

T2: 小鼠ICOS (HTRF测定) (mouse, UniProt Q9WVS0 21-144, limits assumed)
T2 construct: the HTRF construct is described only in US 9,957,323; also called mouse ICOS; mICOS
T2 sequence (looked up): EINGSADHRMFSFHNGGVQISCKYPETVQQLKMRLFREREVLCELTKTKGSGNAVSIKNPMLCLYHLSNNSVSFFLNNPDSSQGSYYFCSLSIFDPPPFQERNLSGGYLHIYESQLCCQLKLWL

T3: 细胞表面上表达的人ICOS (human, UniProt Q9Y6W8 21-199)
T3 construct: whole, on cells; also called hICOS; human ICOS on CHO-S cells
T3 sequence (looked up): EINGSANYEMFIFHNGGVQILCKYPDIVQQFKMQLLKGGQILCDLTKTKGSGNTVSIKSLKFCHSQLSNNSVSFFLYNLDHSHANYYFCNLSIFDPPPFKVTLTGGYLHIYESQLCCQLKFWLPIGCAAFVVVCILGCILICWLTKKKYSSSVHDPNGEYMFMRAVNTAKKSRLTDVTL

T4: CHO-S细胞表面上表达的小鼠ICOS (mouse, UniProt Q9WVS0 21-200)
T4 construct: whole, on cells; also called mICOS; mouse ICOS on CHO-S cells
T4 sequence (looked up): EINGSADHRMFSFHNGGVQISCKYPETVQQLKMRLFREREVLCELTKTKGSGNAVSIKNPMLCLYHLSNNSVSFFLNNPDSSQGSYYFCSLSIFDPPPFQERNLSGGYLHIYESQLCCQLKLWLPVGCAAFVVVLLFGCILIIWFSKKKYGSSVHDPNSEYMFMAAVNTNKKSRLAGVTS

B1: CL-61091 (antibody, V domains shown)
VH: QVQLMQSGTEVKKPGASVKVSCKTSGYTFTTYGITWVRQAPGQGLEWMGWISAYSGDTDYAQKFQGRVTVTTDTSTNTAYMELRSLKSDDTAVYYCARSSGWPHHYGMDVWGQGTTVTVSS
VL: DIVMTQSPLSLPVTPGEPASISCRSSQSLLHSNGFNYFDWYLQKPGQSPQLLIFLVSNRASGVPDRFSGSGSGTDFTLKISRVEAEDVGIYYCMQALQTPLTFGGGTKVEIK
B2: STIM003 (antibody, V domains shown)
VH: EVQLVESGGGVVRPGGSLRLSCVASGVTFDDYGMSWVRQAPGKGLEWVSGINWNGGDTDYSDSVKGRFTISRDNAKNSLYLQMNSLRAEDTALYYCARDFYGSGSYYHVPFDYWGQGILVTVSS
VL: EIVLTQSPGTLSLSPGERATLSCRASQSVSRSYLAWYQQKRGQAPRLLIYGASSRATGIPDRFSGDGSGTDFTLSISRLEPEDFAVYYCHQYDMSPFTFGPGTKVDIKR
notes: also called KY1044; SAR445256
B3: CL-74570 (antibody, V domains shown)
VH: EVQLVESGGGVIRPGGSLRLSCAASGFTFDDYGMSWVRQAPGKGLEWVSGINWIGDNTDYADSVKGRFTISRDNAKNSLYLQMNSLRAEDTALYYCARDYFGSGSYYNVPF
VL: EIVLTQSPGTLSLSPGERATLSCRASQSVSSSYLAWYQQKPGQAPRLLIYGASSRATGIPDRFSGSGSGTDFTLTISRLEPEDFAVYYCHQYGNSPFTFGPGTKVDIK

Legend:
人ICOS (HTRF测定) = molecular target: T1, 人ICOS (HTRF测定); test: HTRF binding assay, HEK supernatant with human IgG1 antibody
小鼠ICOS (HTRF测定) = molecular target: T2, 小鼠ICOS (HTRF测定); test: as above
细胞表面上表达的人ICOS [1] = molecular target: T3, 细胞表面上表达的人ICOS; test: flow cytometry on CHO-S cells expressing ICOS, purified IgG1
CHO-S细胞表面上表达的小鼠ICOS [2] = molecular target: T4, CHO-S细胞表面上表达的小鼠ICOS; test: as above
细胞表面上表达的人ICOS [3] = molecular target: T3, 细胞表面上表达的人ICOS; test: Mirrorball assay on CHO-S cells expressing ICOS; total binding defined by reference antibody, non-specific by hybrid control hIgG1
CHO-S细胞表面上表达的小鼠ICOS [4] = molecular target: T4, CHO-S细胞表面上表达的小鼠ICOS; test: as above
细胞表面上表达的人ICOS [5] = molecular target: T3, 细胞表面上表达的人ICOS; test: receptor occupancy on patients' CD4 memory T cells, chip cytometry

| Binder | 作用 (% effect, 等式1) (人ICOS (HTRF测定)) [%] | 作用 (% effect, 等式1) (小鼠ICOS (HTRF测定)) [%] | fold over negative control (几何平均值) (细胞表面上表达的人ICOS [1]) | fold over negative control (几何平均值) (CHO-S细胞表面上表达的小鼠ICOS [2]) | 作用 (% effect) (细胞表面上表达的人ICOS [3]) [%] | 作用 (% effect) (CHO-S细胞表面上表达的小鼠ICOS [4]) [%] | binding result (细胞表面上表达的人ICOS [5]) |
| --- | --- | --- | --- | --- | --- | --- | --- |
| B1 | > 5 | > 5 | > 10 倍 | > 10 倍 | > 1 | > 1 | – |
| B2 | – | – | – | – | – | – | binds |
| B3 | > 5 | > 5 | > 10 倍 | > 10 倍 | > 1 | > 1 | – |
